# From the nanobody polyreactivity screen of Harvey et al. (2022)
# Assay: yeast display, Sf9 membrane polyspecificity reagent, FACS + sequencing; frameworks hold sequencing errors
# Procedure, shortened: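 Synthetic nanobody libraries on Saccharomyces cerevisiae BJ5465 were galactose-induced for 36–48 hours, stained 1 hour at 4 °C with 10% biotinylated, detergent-solubilized Sf9 membrane reagent and enriched on streptavidin microbeads. FACS then separated cells into low and high (top ~1%) gates by anti-HA (expression) and streptavidin (reagent binding) fluorescence. Genes were colony-PCR amplified, MiSeq 2 × 250 sequenced and CDR-length filtered. A clone's polyreactivity label is that of its gate of origin.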
row,Sequence,polyreactivity (PSR sort gate)
1,QVQLVESGGGLVQAGGSLRLSCAASGGIFDSYAMGWYRQAPGKERELVADITWSGGSTYYADSVKGRFTISRDNAKNTVYLQMNSLKPEDTAVYYCAADDGSQYYFDSPHEYDYWGQGTQVTVSS,low polyreactivity
2,QVQLVESGGGLVQAGGSLRLSCAASGGIFDTYAMGWYRQAPGKERELVAAISSTGGSTYYADSVKGRFTISRDNAKNTVYLQMNSLKPEDTAVYYCNAVLARFWRYRRWEYDYWGQGTQVTLSS,high polyreactivity
3,QVQLVESGGGLVQAGGSLRLSCAASGGIFDYYAMGWYRQAPGKERELVAAISSSGGSTYYADSVKGRFTISRDNAKNTVYLQMNSLKPEDTAVYYCNADRRRRFGYWGQGTQVTVSS,high polyreactivity
4,QVQLVESGGGLVQAGGSLRLSCAASGGIFFINAMGWYRQAPGKERELVAAISISDGSTYYADSVKGRFTISRDNAKNTVYLQMNSLKPEDTAVYYCAAEGFDWDSPEMEYWGQGTQVTVSS,low polyreactivity
5,QVQLVESGGGLVQAGGSLRLSCAASGGIFGGYAMGWYRQAPGKEGELVAVITSGGSTYYADSVKGRFTISRDNAKNTVYLQMNSLKPEDTAVYYCAADGNSYSYSTYDYWGQGTQVTLSS,low polyreactivity
6,QVQLVESGGGLVQAGGSLRLSCAASGGIFGTNDLGWSRQAPGKERELVAAITSDSGSTYYADSVKGRFTISRDNAKNTVYLQMTSLKPEDTAVYYCAAEDGPWFYRYGYWGQGTQVTVSS,low polyreactivity
7,QVQLVESGGGLVQAGGSLRLSCAASGGIFGTYAMGWYRQAPGKEREFVAAITSGDSTYYADSVKGRFTISRDNAKNTVYLQMNSLKPEDTAVYYCAVGSTDRVSAQGSYFTYDYWGQGTQVTVSS,low polyreactivity
8,QVQLVESGGGLVQAGGSLRLSCAASGGIFGTYTMGGYRQSPGKEREFVAAIRSSSGRTYYADSVKGRFTISRDNAKNTVYLQMNSLKPEVTAVYYCNAKYYGYRVGKYYPFGYWGQGTQVTVSS,high polyreactivity
9,QVQLVESGGGLVQAGGSLRLSCAASGGIFGYNAMGWYRQAPGKERELVAAISRGTTTNYADSVKGRFTISRDNAKNTVYLQMNSLKPEDTAVYYCAADQPSKRYYYWGQGTQVTVSS,low polyreactivity
10,QVQLVESGGGLVQAGGSLRLSCAASGGIFGYYAMGWYRQAPGKERELVAAISYSGGSTYADSVKGRFTISRDNAKNTVYLQMNSLKPEDTAVFYCAARVSSVTRSGFGYWGQGTQVTVSS,high polyreactivity
11,QVQLVESGGGLVQAGGSLRLSCAASGGIFISYAMGWYRQAPGKERELVAAITSSGGSTYYADSVKGRFTISRDNAKNTVYLQMNSLKPEVTAVYYCNTDRVPVKVSPLYESWGQGTQVTVSS,low polyreactivity
12,QVQLVESGGGLVQAGGSLRLSCAASGGIFKYYAMGWSRQAPGTERELVAAITSGGNTNYAESVKGRFTISRDNAKNTVYLQMNSQKPEDTAVYYCSARSISRRTWQYNYWGQGTQVTVSS,high polyreactivity
13,QVQLVESGGGLVQAGGSLRLSCAASGGIFLKYAMAWYRQAPGKERELVASINTGVRTYYADSVKGRFTISRDNAKNTVYLQMNSLKPEDTAVYYCYADGGGPRKYTRTRGHWGQGTQVTVSS,low polyreactivity
14,QVQLVESGGGLVQAGGSLRLSCAASGGIFLRYSMGWYRQAPGKERELVAAITANGGSTYYADSVKGRFTISRDNAKNTVYLQMISMKPEDTAVYYCNADSFPALNKRGYDYWGQVTQVTVSS,low polyreactivity
15,QVQLVESGGGLVQAGGSLRLSCAASGGIFNYYAMGWYRQAPGKERELVAAISASGGSTYYADSVKGRFTISRDNAKNTVYLQMNSLKPEDTAVYYCAAGLPYGYGYDYWGQGTQVTVSS,low polyreactivity
16,QVQLVESGGGLVQAGGSLRLSCAASGGIFPAYAMGWYRQAPGKERELVAAITSSGASTYADSVKGRFTISRDNAKNTVYLQMNSLKPEDTAVYYCNADDTTVILEMDYWGQGTQVTVSS,low polyreactivity

row,Sequence,polyreactivity (PSR sort gate)
1,QVQLVESGGGLVQAGGSLRLSCAASGGIFRGNAMGWYRQAPGKERELVAAISSSGGSTYYADSVKVRFTISRDNSKYTVYLEMYSLKPEDTAVYYCAAYAGSFYYWGQGTQVTVSS,high polyreactivity
2,QVQLVESGGGLVQAGGSLRLSCAASGGIFRSYAMGWYRQAPGKERELVAAINYSGGSTYYADSVKGRFTISRDNAKNSVYLQMNSLKPEDTAVYYCASDGYIRQYVTYYYWGQGTQVTVSS,low polyreactivity
3,QVQLVESGGGLVQAGGSLRLSCAASGGIFSWYDMGWYRQAPGKEREFVATITYSGGSTYYADSVKGRFTISRDNAKNTVYLQMNSLKPEDTAVYYCAAARYWYRRFDYWGQGTQVTVSS,high polyreactivity
4,QVQLVESGGGLVQAGGSLRLSCAASGGIFSYNAMGWYIQAPGKERELVATISYSGGSTFYADSVKGRFTISRHNAKNTVYFQMNSLKPEDTAVYYCARPSYTSGYQSYDYWGQGTQVTVSS,low polyreactivity
5,QVQLVESGGGLVQAGGSLRLSCAASGGIFTGYAMGWYRQAPGKERELVAAISSGGTTYYADSVKGRFTISRDNAKITVHLQMNSLKPEDTAVYYCAAGFYLRAVWMDYWGQGTQVTVSS,high polyreactivity
6,QVQLVESGGGLVQAGGSLRLSCAASGGIFTLNGMGWYRQAPGKERELVAVITSSGGSTYYADSVKGRFTISRDNAKNTVYLQMNSLKPEDTAVYYCAAQLVRYVGYYRFDYWGQGTQVTVSS,low polyreactivity
7,QVQLVESGGGLVQAGGSLRLSCAASGGIFTYYAMGWYRQAPGKERELVAAISASGGSTYYADSVKGRFTISRDNAKNTVYLQMNSLKPEDTAVYYCAAGLPYGYGYDYWGQGTQVTVSS,low polyreactivity
8,QVQLVESGGGLVQAGGSLRLSCAASGGIFTYYVLGWYRQAPGKERELVAAITIGDSTYYADSVKGRFTISRDNAKNTVYVQINSLKPEDTAVYYCNADPYNTWGFTNGYWGQGTQVTVSS,low polyreactivity
9,QVQLVESGGGLVQAGGSLRLSCAASGGIFVTYAMVWYRQAPGKERELVAAITSGGTTYYADSVKGRFTISRDNAKNTVYIQMNSLTPEDTAVYYCAARYYPGYYYPPLDYWGQGSQVTVSS,low polyreactivity
10,QVQLVESGGGLVQAGGSLRLSCAASGGIFWRYAMGWYRQAPGKERELVAAISSRGGSTYYADSVKGRFTISRDNAKNTVYLPMNSLKPEYTAVYYCAAAFLSRVQGYDSWGQGTQVTVSS,high polyreactivity
11,QVQLVESGGGLVQAGGSLRLSCAASGGIFWVNAMGWYRQAPGKERELVAAISWSDDNTYYADSVKGRFTISRDNAKNTVYLQMNSLKPEDTAVYYCAKDFYDYGSFYWYEYWGQGTQVTVSS,high polyreactivity
12,QVQLVESGGGLVQAGGSLRLSCAASGGIFYGYAMGWYRQAPGKERELVAAISDSGGSTYYADSVKGRFTNSRDNAKYTGYVQMNSLKPEVTAVYYCATDAPVGGYVSEGDYWGQGTQVTVSS,low polyreactivity
13,QVQLVESGGGLVQAGGSLRLSCAASGGIFYPNVKGWYRQAPGKEREFVAAISSSSGSTYADSVKGRFTISRDNAKNTVYLQMNSLKPDDTAVFYCAAEENWWGIWVRYDYWVQGTQVTVSS,low polyreactivity
14,QVQLVESGGGLVQAGGSLRLSCAASGGIFYPYAMGWYRQAPGKERELVASIDVSDGSTYYADSVKGRFTISRDNAKNTVYLQMNSLKPEDTAVYYCAADRYSKAIDFEGDYWGQGTQVTVSS,low polyreactivity
15,QVQLVESGGGLVQAGGSLRLSCAASGGIFYRYAMGWYRQAPGKEREFVASIDVSGGSTHYADSVKGRFTISRDNAKNTVDLQMNSLKPEDTAVHYCAARVYWRSSRYYYWGHGTQVTVSS,high polyreactivity
16,QVQLVESGGGLVQAGGSLRLSCAASGGIFYSYAMGWYRQAPGKERELVAAISGRGGSTYYADSVKGRFTISRDNAKNTVYLQMNSLKPEDTAVYYCNALGSQRYDYWGQGTQVTVSS,high polyreactivity
